B1: Ab1 (antibody, V domains shown)
VH: QVQLVQSGAEVKKTGSSVKVSCKASGYTFTDHAIHWVRQAPGQALEWMGHFSPGNTDIKYNDKFKGRVTLTVDRSMSTAYMELSSLRSEDTAMYYCKTSTFFFDYWGQGTMVTVSS
VL: DIVMTQSPDSLAVSLGERATINCKSSQSLLNSGDQKNYLTWYQQKPGQPPKLLIYWASTRESGVPDRFSGSGSGTDFTLTISSLQAEDVAVYYCQNDYSYPLTFGQGTKVEIK
notes: Expressed as human IgG1/kappa from pFUSE-CHIg-hG1 and pFUSE2-CLIg-hk vectors; also called 5E5RHA8 / 5E5RKA
B2: Ab3 (antibody, V domains shown)
VH: EVQLVESGAEVKKPGASVEVSCQASGYTFTDHAIHWVRQAPGQGLEWMGHFSPGNTDIKYNDKFKGRVTMTVDRSINTAYMELRRLRSDDTAVYYCKTSTFFFDYWGQGTMVTVSS
VL: DIVMTQSPDSLAVSLGERATINCKSSQSLLNSGDQKNYLTWYQQKPGQPPKLLIYWASTRESGVPDRFSGSGSGTDFTLTISSLQAEDVAVYYCQNDYSYPLTFGQGTKVEIK
notes: Expressed as human IgG1/kappa from pFUSE-CHIg-hG1 and pFUSE2-CLIg-hk vectors; also called 5E5RHC9 / 5E5RKA
B3: Ab5 (antibody, human IgG1, V domains shown)
VH: EVQLVQSGAEVKKPGESLKISCKISGYIFTDHAIHWVRQMPGKGLEWMGHFSPGNTDIKYNDKFKGQVTLSVDRSINTAYLQWSSLKASDTAIYFCKTSTFFFDYWGQGTRVTVSS
VL: DIVMTQSPLSLPVTPGEPASISCKSSQSLLNSGDQKNYLTWYLQKPGQSPQLLIYWASTRESGVPDRFSGSGSGTDFTLKISRVEAEDVGVYYCQNDYSYPLTFGGGTKVEIK
notes: Expressed as human IgG1/kappa from pFUSE-CHIg-hG1 and pFUSE2-CLIg-hk vectors; also called 5E5RHB10 / 5E5RKB
B4: Ab4 (antibody, human IgG1, V domains shown)
VH: QVQLVQSGAEVKKTGSSVKVSCKASGYTFTDHAIHWVRQAPGQALEWMGHFSPGNTDIKYNDKFKGRVTLTVDRSMSTAYMELSSLRSEDTAMYYCKTSTFFFDYWGQGTMVTVSS
VL: DIVMTQSPLSLPVTPGEPASISCKSSQSLLNSGDQKNYLTWYLQKPGQSPQLLIYWASTRESGVPDRFSGSGSGTDFTLKISRVEAEDVGVYYCQNDYSYPLTFGGGTKVEIK
notes: Expressed as human IgG1/kappa from pFUSE-CHIg-hG1 and pFUSE2-CLIg-hk vectors; also called 5E5RHA8 / 5E5RKB
B5: Ab6 (antibody, human IgG1, V domains shown)
VH: EVQLVESGAEVKKPGASVEVSCQASGYTFTDHAIHWVRQAPGQGLEWMGHFSPGNTDIKYNDKFKGRVTMTVDRSINTAYMELRRLRSDDTAVYYCKTSTFFFDYWGQGTMVTVSS
VL: DIVMTQSPLSLPVTPGEPASISCKSSQSLLNSGDQKNYLTWYLQKPGQSPQLLIYWASTRESGVPDRFSGSGSGTDFTLKISRVEAEDVGVYYCQNDYSYPLTFGGGTKVEIK
notes: Expressed as human IgG1/kappa from pFUSE-CHIg-hG1 and pFUSE2-CLIg-hk vectors; also called 5E5RHC9 / 5E5RKB
B6: Ab2 (antibody, V domains shown)
VH: EVQLVQSGAEVKKPGESLKISCKISGYIFTDHAIHWVRQMPGKGLEWMGHFSPGNTDIKYNDKFKGQVTLSVDRSINTAYLQWSSLKASDTAIYFCKTSTFFFDYWGQGTRVTVSS
VL: DIVMTQSPDSLAVSLGERATINCKSSQSLLNSGDQKNYLTWYQQKPGQPPKLLIYWASTRESGVPDRFSGSGSGTDFTLTISSLQAEDVAVYYCQNDYSYPLTFGQGTKVEIK
notes: Expressed as human IgG1/kappa from pFUSE-CHIg-hG1 and pFUSE2-CLIg-hk vectors; also called 5E5RHB10 / 5E5RKA
B7: Mouse 5E5 (antibody, V domains shown)
VH: QVQLQQSDAELVKPGSSVKISCKASGYTFTDHAIHWVKQKPEQGLEWIGHFSPGNTDIKYNDKFKGKATLTVDRSSSTAYMQLNSLTSEDSAVYFCKTSTFFFDYWGQGTTLTVSS
VL: DIVMTQSPSSLTVTAGEKVTMICKSSQSLLNSGDQKNYLTWYQQKPGQPPKLLIFWASTRESGVPDRFTGSGSGTDFTLTISSVQAEDLAVYYCQNDYSYPLTFGAGTKLELK
notes: V regions were subcloned into pFUSE-CHIg-hG1 (human IgG1) and pFUSE2-CLIg-hk (human kappa) vectors and expressed in HEK293 cells; also called mouse 5E5 antibody; 5E5VH/5E5VK

target: T1, 16TR-MUC1-Tn (human, UniProt P15941 126-445, limits assumed, Tn glycoform (GalNAcα1-O-Ser/Thr); glycosylated sites of the reagent not stated); test: Tn-MUC1 binding ELISA (protocol 4), plate-coated 16TR-MUC1-Tn
T1 construct: domain: 16TR; also called Tn-MUC1; TnMUC1
T1 sequence (P15941 126-445 limits assumed): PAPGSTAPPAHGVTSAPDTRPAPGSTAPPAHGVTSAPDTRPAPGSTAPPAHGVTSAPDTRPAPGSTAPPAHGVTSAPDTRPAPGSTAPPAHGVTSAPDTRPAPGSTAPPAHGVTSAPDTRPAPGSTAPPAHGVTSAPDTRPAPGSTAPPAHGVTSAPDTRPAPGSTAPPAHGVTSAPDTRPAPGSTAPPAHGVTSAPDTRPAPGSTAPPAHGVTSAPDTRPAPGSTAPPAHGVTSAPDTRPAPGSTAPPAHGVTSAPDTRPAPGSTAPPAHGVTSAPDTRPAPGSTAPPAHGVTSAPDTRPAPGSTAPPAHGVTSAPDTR

**Q.** With B1 as the binder, how does the EC50 read?
**A.** Its EC50 is 0.0246 µg/mL.

**Q.** Which EC50 does the source give for B2 here?
**A.** Its EC50 is 0.0615 µg/mL.

**Q.** For B3, which EC50 is on record?
**A.** Its EC50 is 0.0269 µg/mL.

**Q.** With B4 as the binder, how does the EC50 read?
**A.** Its EC50 is 0.0755 µg/mL.

**Q.** B5 was tested. Which EC50 did it give?
**A.** The EC50 was 0.0198 µg/mL.

**Q.** B6 was tested. Which EC50 did it give?
**A.** Its EC50 is 0.0345 µg/mL.

**Q.** For B7, which EC50 is on record?
**A.** The EC50 was 0.0311 µg/mL.

From patent publication US20170267778A1 (ADC THERPEUTICS S A, published 2017)
